Patent publication US5821048, “Methods, kits, and compositions for diagnosing papillomavirus infection” (President and Fellows of Harvard College, dated 1998)

Experiments:
[1] = target: T1, full length BPV-1 E2 protein, in vitro translated (bovine papillomavirus-1, 35S-methionine-labelled); assay: GST pull-down of in vitro translated 35S-E2
T1 chain: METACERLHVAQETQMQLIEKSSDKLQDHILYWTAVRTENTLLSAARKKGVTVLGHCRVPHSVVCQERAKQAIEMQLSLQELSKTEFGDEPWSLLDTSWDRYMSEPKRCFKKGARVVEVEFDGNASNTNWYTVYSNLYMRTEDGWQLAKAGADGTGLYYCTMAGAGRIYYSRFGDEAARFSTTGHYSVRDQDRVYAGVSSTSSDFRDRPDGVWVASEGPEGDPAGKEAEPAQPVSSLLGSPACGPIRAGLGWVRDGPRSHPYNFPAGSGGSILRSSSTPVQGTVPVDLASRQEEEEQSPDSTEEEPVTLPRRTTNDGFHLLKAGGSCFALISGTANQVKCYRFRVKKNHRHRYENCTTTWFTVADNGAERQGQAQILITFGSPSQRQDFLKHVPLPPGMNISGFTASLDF

BPV-1 E2 (aa161-410) = target: T2, BPV-1 E2 (aa161-410) (bovine papillomavirus-1, 35S-methionine-labelled); assay: GST pull-down of in vitro translated 35S-E2 forms
T2 chain: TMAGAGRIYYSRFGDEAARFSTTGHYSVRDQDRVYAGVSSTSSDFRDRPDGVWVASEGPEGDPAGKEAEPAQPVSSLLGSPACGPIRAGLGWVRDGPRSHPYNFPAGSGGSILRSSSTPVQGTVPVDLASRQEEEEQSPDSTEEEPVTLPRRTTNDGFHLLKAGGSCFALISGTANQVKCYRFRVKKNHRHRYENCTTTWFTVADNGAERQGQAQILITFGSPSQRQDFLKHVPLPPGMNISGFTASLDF

[2] = target: T3, BPV-1 E2 protein bearing a deletion of the amino terminal 52 amino acids (bovine papillomavirus-1, 35S-methionine-labelled); assay: GST pull-down of in vitro translated 35S-E2 forms
T3 chain: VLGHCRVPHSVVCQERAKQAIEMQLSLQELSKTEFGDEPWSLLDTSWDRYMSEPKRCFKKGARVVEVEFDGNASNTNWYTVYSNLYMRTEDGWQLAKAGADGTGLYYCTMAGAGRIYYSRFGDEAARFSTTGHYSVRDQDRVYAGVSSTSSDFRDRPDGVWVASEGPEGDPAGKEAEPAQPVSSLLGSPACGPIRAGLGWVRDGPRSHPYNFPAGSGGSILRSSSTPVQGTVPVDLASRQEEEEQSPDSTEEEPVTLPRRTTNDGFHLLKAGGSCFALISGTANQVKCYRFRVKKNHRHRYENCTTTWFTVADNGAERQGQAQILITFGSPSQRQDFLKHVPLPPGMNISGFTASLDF

B1: GST fusion protein containing amino acids 200-424 of SEQ ID NO:1 (BPV-1 E1) (other)
chain: AEVFFEASFELLKKQCSFLQMQKRSHEGGTCAVYLICFNTAKSRETVRNLMANTLNVREECLMLQPAKIRGLSAALFWFKSSLSPATLKHGALPEWIRAQTTLNESLQTEKFDFGTMVQWAYDHKYAEESKIAYEYALAAGSDSNARAFLATNSQAKHVKDCATMVRHYLRAETQALSMPAYIKARCKLATGEGSWKSILTFFNYQNIELITFINALKLWLKGIP
binding result [1]: no binding

B2: GST fusion protein containing BPV-1 E1 amino acids 1-128 (other)
chain: MANDKGSNWDSGLGCSYLLTEAECESDKENEEPGAGVELSVESDRYDSQDEDFVDNASVFQGNHLEVFQALEKKAGEEQILNLKRKVLGSSQNSSGSEASETPVKRRKSGAKRRLFAENEANRVLTPL
binding result [1]: no binding

B3: BPV-1 E1 (amino acids 1-222)-GST fusion protein (other)
chain: MANDKGSNWDSGLGCSYLLTEAECESDKENEEPGAGVELSVESDRYDSQDEDFVDNASVFQGNHLEVFQALEKKAGEEQILNLKRKVLGSSQNSSGSEASETPVKRRKSGAKRRLFAENEANRVLTPLQVQGEGEGRQELNEEQAISHLHLQLVKSKNATVFKLGLFKSLFLCSFHDITRLFKNDKTTNQQWVLAVFGLAEVFFEASFELLKKQCSFLQMQK
binding result (BPV-1 E2 (aa161-410)): no binding
binding result [2]: no binding
